Data reported in patent US20090053180A1, “Tandem cardiac pacemaker system” (priority 2005, published 2009).
Entries after “also recorded” stand apart in the source; their conditions may differ.

Key:
[1] = system: newborn rat ventricular myocytes; test: Whole-cell voltage clamp of expressed HCN current in newborn rat ventricular myocytes; assay type: cell-based; settings: for V1/2 / s: fit of average data
Procedure: Adult rats were anesthetized with ketamine-xylazine before cardiectomy, and neonatal rats decapitated. Newborn rat ventricular myocyte cultures were prepared as previously described (Protas and Robinson, 1999). Briefly, 1-2-day-old Wistar rats were euthanized, hearts were quickly removed and ventricles were dissociated using a standard trypsinization procedure. Myocytes were harvested, preplated to reduce fibroblast proliferation, cultured initially in serum-containing medium (except when being transfected with plasmids as described below), and then incubated in serum free medium (SFM) at 37° C., 5% CO2 after 24 h. Action potential studies were conducted on 4-day-old monolayer cultures plated directly onto fibronectin-coated 9×22 mm glass coverslips. For voltage clamp experiments, 4-6 day old monolayer cultures were resuspended by brief (2-3 min) exposure to 0.25% trypsin, then replated onto fibronectin-coated coverslips and studied within 2-8 h.
Adenoviral infection of the newborn ventricular myocytes was performed on cell monolayer cultures 4 days after initial plating. Cells were exposed to a virus-containing mix (m.o.i. 20, in 250 μl of culture medium) for 2 h, rinsed twice and incubated in SFM at 37° C., 5% CO2 for 24-48 hours prior to the cells being resuspended as described above for electrophysiological study.
The whole-cell patch clamp technique was employed to record mHCN2 current from cultured myocytes. Experiments were carried out on cells superfused at 35° C. The external solution contained (mM): NaCl, 140; NaOH, 2.3; MgCl2, 1; KCl, 10; CaCl2, 1; HEPES, 5; glucose, 10; pH 7.4. MnCl2 (2 mM) and BaCl2 (4 mM) were added to block other currents. The pipette solution contained (mM): aspartic acid, 130; KOH, 146; NaCl, 10; CaCl2, 2; EGTA-KOH, 5; Mg-ATP, 2; HEPES-KOH, 10; pH 7.2.
To measure the HCN activation curve, a standard two-step protocol was employed. Hyperpolarizing steps from −25 to −135 mV for mHCN2 and from −5 or −15 to −135 mV for mE324A were applied from a holding potential of −10 mV, followed by a tail current step (to −125 or −135 mV). The duration of test steps was longer at less hyperpolarized potential for mHCN2 channels, to more closely approach steady-state activation at all voltages. The normalized plot of tail current versus test voltage was fit with a Boltzmann function and then the voltage of half maximum activation (V1/2) and slope factor(s) were defined from the fitting. Activation kinetics were determined from the same traces, while deactivation kinetics were determined from traces recorded at each test potential after achieving full activation by a prepulse to −135 mV. Time constants were then obtained by fitting the early time course of activation or deactivation current traces with a monoexponential function; the initial delay and any late slow activation or deactivation phase were ignored (Qu et al., 2001; Altomare et al., 2001). Current densities are expressed as the value of the time-dependent component of current amplitude, measured at the end of the test potential and normalized to cell membrane capacitance. Records were not corrected for liquid junction potential, which was previously determined to be 9.8 mV under these conditions (Qu et al., 2001).

[2] = system: dogs with complete AV block; test: Tandem biological and electronic pacemakers in dogs with complete AV block (injection into left bundle branch); assay type: in vivo, dog
Procedure: Adult mongrel dogs weighing 22-25 kg were anesthetized with propofol 6 mg/kg IV and inhalational isoflurane (1.5%-2.5%). Using a steerable catheter, saline (n=5), AdmHCN2 (n=6) or AdmE324A (n=4) were injected into the left bundle branch (LBB) as described previously (Plotnikov et al., 2004). In 2 additional dogs AdmE324A was injected into the LV septal myocardium as an internal control. Complete AV block was induced via radiofrequency ablation and each site of injection was paced via catheter electrode to distinguish electrocardiographically the origin of the idioventricular rhythm during the follow up period.
An electronic pacemaker (Discovery II, Flextend lead; Guidant, Indianapolis, Ind.) was implanted and set at VVI 45 bpm. ECG, 24 hour Holter monitoring, pacemaker log record check, and overdrive pacing at 80 bpm were performed daily for 14 days. To evaluate beta-adrenergic responsiveness, on day 14, epinephrine (1.0, 1.5 and 2.0 μg/kg/min for up to 10 min each) was infused to an endpoint of a 50% increase in idioventricular rate or ventricular arrhythmia (single ventricular premature beats having a morphology other than that of the dominant idioventricular rhythm or ventricular tachycardia), whichever occurred first. If none of the above responses was observed within 10 min after onset of the maximal dose of 2 μg/kg/min, the infusion was terminated.
Data are presented as means±SEM. […] One-way ANOVA was used to evaluate the effect of an implanted construct on electrophysiological parameters. Subsequent analysis was performed using Bonferroni's test where equal variances were assumed and the Games-Howell test where variances were unequal. A two-way contingency table analysis was conducted to evaluate whether epinephrine had different effects across three groups. Data were analyzed using SPSS for Windows software (SPSS, Inc.). P<0.05 was considered to be significant.
Complete AV block was induced via radiofrequency ablation, and electronic pacemakers were implanted into the right ventricular apical endocardium and set a VV1 45 bpm. ECG and 24-h monitoring were performed daily for 14 days. Beta-adrenergic responsiveness was also evaluated as described above.
Escape time was evaluated daily by performing three 30-s periods of ventricular overdrive pacing at 80 bpm followed by an abrupt cessation of pacing. The average time between the final electronically paced beat and the first intrinsic beat was then determined. […] There was a different result with regard to basal heart rates throughout the 14-day period, however.

[3] = system: Xenopus oocytes; test: Two-microelectrode voltage clamp of expressed HCN current in Xenopus oocytes; assay type: cell-based, Xenopus laevis
[4] = 10 μM cAMP in the pipette solution

B1: mE324A: mHCN2 channel with E324A point mutation, expressed from cRNA or adenoviral construct AdmE324A (protein, UniProt O88703 1-863, looked up, variant E324A)
Potassium/sodium …: MDARGGGGRPGDSPGTTPAPGPPPPPPPPAPPQPQPPPAPPPNPTTPSHPESADEPGPRARLCSRDSACTPGAAKGGANGECGRGEPQCSPEGPARGPKVSFSCRGAASGPSAAEEAGSEEAGPAGEPRGSQASFLQRQFGALLQPGVNKFSLRMFGSQKAVEREQERVKSAGAWIIHPYSDFRFYWDFTMLLFMVGNLIIIPVGITFFKDETTAPWIVFNVVSDTFFLMDLVLNFRTGIVIEDNTEIILDPEKIKKKYLRTWFVVDFVSSIPVDYIFLIVEKGIDSEVYKTARALRIVRFTKILSLLRLLRLSRLIRYIHQWAEIFHMTYDLASAVMRICNLISMMLLLCHWDGCLQFLVPMLQDFPSDCWVSINNMVNHSWSELYSFALFKAMSHMLCIGYGRQAPESMTDIWLTMLSMIVGATCYAMFIGHATALIQSLDSSRRQYQEKYKQVEQYMSFHKLPADFRQKIHDYYEHRYQGKMFDEDSILGELNGPLREEIVNFNCRKLVASMPLFANADPNFVTAMLTKLKFEVFQPGDYIIREGTIGKKMYFIQHGVVSVLTKGNKEMKLSDGSYFGEICLLTRGRRTASVRADTYCRLYSLSVDNFNEVLEEYPMMRRAFETVAIDRLDRIGKKNSILLHKVQHDLSSGVFNNQENAIIQEIVKYDREMVQQAELGQRVGLFPPPPPPQVTSAIATLQQAVAMSFCPQVARPLVGPLALGSPRLVRRAPPGPLPPAASPGPPAASPPAAPSSPRAPRTSPYGVPGSPATRVGPALPARRLSRASRPLSASQPSLPHGVPAPSPAASARPASSSTPRLGPAPTARTAAPSPDRRDSASPGAASGLDPLDSARSRLSSNL
In the case of B1, the “activation kinetics compared with mHCN2” value [1] is reported as “faster”, the “activation threshold compared with mHCN2” value [1] is reported as “less negative” and the “shift of V1/2 by cAMP” value [1, 4] is reported as 5.6 mV. The “percentage of myocytes expressing current” value ([1]; 6 matched cell cultures) was 36.6%, the “current density, times smaller than that of mHCN2” value ([1]; at −135 mV) was “about 2.5 times” and the V1/2 [1, 4] was −40.7 mV. It also gave a s [1, 4] of 8.7 mV, a V1/2 ([1]; absence of cAMP) of −46.3 mV and a s ([1]; absence of cAMP) of 9.1 mV. The slope factor s ([1]; mean of individual Boltzmann fits) was 9.6±0.4 mV, the “V1/2 (voltage of half maximum activation)” value ([1]; mean of individual Boltzmann fits, adenoviral infection) was −46.9±1.2 mV and the current density ([1]; measured at −135 mV) was 21.0±3.5 pA/pF. The “beats triggered by the electronic pacemaker, of all beats” value ([2]; 14 days, electronic pacemaker set at VVI 45 bpm) was 36±7%, the “arrhythmias during epinephrine infusion” value ([2]; day 14) was “no arrhythmias were seen” and the “mean basal heart rate compared with saline group” value ([2]; days 1-7 and 8-14) was “significantly faster”. For the same molecule, the “animals that achieved a 50% increase in rate at the lowest epinephrine dose” value ([2]; epinephrine 1 μg/kg/min, day 14) was 100%, the “increase in heart rate” value ([2]; lowest dose of epinephrine) was greater than 50% and the “control rate prior to epinephrine” value ([2]; representative animal, day 14) was 52 bpm. The rate with epinephrine ([2]; representative animal, epinephrine 1 μg/kg/min) was 81 bpm, the “effect of Cs+ on inward current” value ([3]; 5 mM Cs+) was “blocked; also recorded: large inhibition” and the reversal potential ([3]; fully activated current/voltage relation) was roughly −40 mV.
